The results in this text go back to patent US20210340530A1 (INTELLIA THERAPEUTICS, published 2021).

The chains are these.
T1: WT1 (Wilms' tumor protein) peptide on HLA-A*02:01 (human)
T1 peptide: RMFPNAPYL

B1: TCR-G (TCR, V domains shown)
Valpha: DQQVKQNSPSLSVQEGRISILNCDYTNSMFDYFLWYKKYPAEGPTFLISISSIKDKNEDGRFTVFLNKSAKHLSLHIVPSQPGDSAVYFCAARGQGNLIFGKGTKLSVKP
Vbeta: EAGVAQSPRYKIIEKRQSVAFWCNPISGHATLYWYQQILGQGPKLLIQFQNNGVVDDSQLPKDRFSAERLKGVDSTLKIQPAKLEDSAVYLCASSLYRGEQYFGPGTRLTVT
B2: TCR-H (TCR, V domains shown)
Valpha: RKEVEQDPGPFNVPEGATVAFNCTYSNSASQSFFWYRQDCRKEPKLLMSVYSSGNEDGRFTAQLNRASQYISLLIRDSKLSDSATYLCVVKPDPGAGSYQLTFGKGTKLSVIP
Vbeta: NAGVTQTPKFRVLKTGQSMTLLCAQDMNHEYMYWYRQDPGMGLRLIHYSVGEGTTAKGEVPDGYNVSRLKKQNFLLGLESAAPSQTSVYFCASRGYHRLNNEQFFGPGTRLTVL
B3: TCR-F (TCR, V domains shown)
Valpha: AQKITQTQPGMFVQEKEAVTLDCTYDTSDPSYGLFWYKQPSSGEMIFLIYQGSYDQQNATEGRYSLNFQKARKSANLVISASQLGDSAMYFCAISGNTPLVFGKGTRLSVIA
Vbeta: AAGVIQSPRHLIKEKRETATLKCYPIPRHDTVYWYQQGPGQDPQFLISFYEKMQSDKGSIPDRFSAQQFSDYHSELNMSSLELGDSALYFCASSLRGGLEKLFFGSGTQLSVL

The target in this assay is T1, WT1 (Wilms' tumor protein) peptide on …. Put plainly: killing.
In the case of B1, the binding result is listed as “no recognition”.
As to B2, the binding result was “no recognition”.
In the case of B3, the binding result is listed as “no recognition”.
